Measured values reported in US20240116985A1 (published 2024).
Starred links: 1 amine or outer side, 2 acyl side, 3 side chain; linkers in the order of their positions; H or OH if unused. Positions of bridges follow the written chain, without caps; N, C: chain ends. Non-standard residues stand in square brackets, D forms with d. Primed or numbered codes have the meaning given here. *: point of attachment. PyrS2″ = (S)-3-amino-1-((pent-4-en-1-yloxy)carbonyl)pyrrolidine-3-carboxylic acid (stapling residue), C=CCCCOC(=O)N1CC[C@@](N[*:1])(C(=O)[*:2])C1; RdN″ = (R)-4-(((allyloxy)carbonyl)(methyl)amino)-2-amino-2-methylbutanoic acid (stapling residue), C=CCOC(=O)N(C)CC[C@@](C)(N[*:1])C(=O)[*:2]; B5(4) = 2,2-bis(4-pentenyl)glycine = 2-amino-2-(pent-4-en-1-yl)hept-6-enoic acid (stitching residue), C=CCCCC(CCCC=C)(N[*:1])C(=O)[*:2]; B5(5) = 2,2-bis(4-pentenyl)glycine, 2-amino-2-(pent-4-en-1-yl)hept-6-enoic acid (stitching residue), C=CCCCC(CCCC=C)(N[*:1])C(=O)[*:2]; TfeGA = (S)-2-amino-3-((carboxymethyl)(2,2,2-trifluoroethyl)amino)propanoic acid, O=C([C@H](CN(CC(=O)[*:3])CC(F)(F)F)N[*:1])[*:2]; PyrS2 = (S)-3-amino-1-((pent-4-en-1-yloxy)carbonyl)pyrrolidine-3-carboxylic acid, C=CCCCOC(=O)N1CC[C@@](N[*:1])(C(=O)[*:2])C1; RdN = (R)-4-(((allyloxy)carbonyl)(methyl)amino)-2-amino-2-methylbutanoic acid, C=CCOC(=O)N(C)CC[C@@](C)(N[*:1])C(=O)[*:2]; B5(3) = 2,2-bis(4-pentenyl)glycine (stitching residue), C=CCCCC(CCCC=C)(N[*:1])C(=O)[*:2]; B5 = 2-amino-2-(pent-4-en-1-yl)hept-6-enoic acid, C=CCCCC(CCCC=C)(N[*:1])C(=O)[*:2]; Phe(3-COOH) = N[C@@H](Cc1cccc(C(=O)O)c1)C(=O)O; 2F3MeF = Cc1cccc(C[C@H](N[*:1])C(=O)[*:2])c1F; S7 = C[C@@](CCCCCC=[*:3])(N[*:1])C(=O)[*:2]; Phe(3-OMe) = COc1cccc(C[C@H](N)C(=O)O)c1; Bta = N[C@@H](Cc1csc2ccccc12)C(=O)O; αAllylPro = C=CC[C@@]1(C(=O)O)CCCN1; tBuAla = CC(C)(C)C[C@H](N)C(=O)O; 3Thi = N[C@@H](Cc1ccsc1)C(=O)O; S8 = C=CCCCCCC[C@](C)(N)C(=O)O; PyrS2(4) = not defined here; TfeGA″ = not defined here; Ms = CS(=O)(=O)*

How the values were obtained:
[1] = biological target: T1, full-length beta-Catenin (Uniprot ID P35222) (Homo sapiens (Human), UniProt P35222 1-781); experiment: fluorescence polarization competition; peptide titrated against full-length beta-catenin + 5FAM-TCF4(10-53)
T1 construct: also called bCat; B-Catenin
T1 sequence: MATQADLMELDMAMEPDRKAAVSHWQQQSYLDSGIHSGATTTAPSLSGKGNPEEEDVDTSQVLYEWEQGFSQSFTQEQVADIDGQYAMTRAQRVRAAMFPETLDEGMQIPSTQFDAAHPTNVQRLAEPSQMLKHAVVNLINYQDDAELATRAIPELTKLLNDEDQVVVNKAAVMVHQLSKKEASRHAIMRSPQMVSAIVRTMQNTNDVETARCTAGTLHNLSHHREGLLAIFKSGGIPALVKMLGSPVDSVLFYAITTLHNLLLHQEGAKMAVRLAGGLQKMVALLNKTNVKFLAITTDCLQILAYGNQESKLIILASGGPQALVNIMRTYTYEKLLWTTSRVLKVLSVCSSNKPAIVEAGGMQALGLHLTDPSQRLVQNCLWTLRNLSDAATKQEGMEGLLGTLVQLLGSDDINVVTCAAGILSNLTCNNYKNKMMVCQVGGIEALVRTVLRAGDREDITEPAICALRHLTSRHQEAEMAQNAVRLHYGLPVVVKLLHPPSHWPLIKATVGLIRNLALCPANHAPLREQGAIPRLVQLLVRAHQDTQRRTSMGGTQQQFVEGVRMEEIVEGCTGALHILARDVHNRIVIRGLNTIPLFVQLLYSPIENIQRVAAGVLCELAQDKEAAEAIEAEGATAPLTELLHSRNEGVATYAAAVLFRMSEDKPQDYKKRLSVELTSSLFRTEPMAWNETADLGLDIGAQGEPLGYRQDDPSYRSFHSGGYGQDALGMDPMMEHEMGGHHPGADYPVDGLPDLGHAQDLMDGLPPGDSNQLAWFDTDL
Experimental: (§1) The plate was incubated protected from light for 60 minutes at 20° C. prior to read. Reads were performed on a CLARIOstar plate reader (BMG Labtech) in duplicate, and data were fitted to a 1:1 binding model with hill slope using an in-house script. All provided concentrations are final concentrations.

[2] = biological target: T2, full-length beta-Catenin (Uniprot ID P35222) (Homo sapiens (Human), UniProt P35222 2-781); experiment: fluorescence polarization competition; peptide titrated against 10 nM full-length beta-catenin with 10 nM 5FAM-TCF4(10-53) probe
T2 construct: also called bCat; B-Catenin
T2 sequence: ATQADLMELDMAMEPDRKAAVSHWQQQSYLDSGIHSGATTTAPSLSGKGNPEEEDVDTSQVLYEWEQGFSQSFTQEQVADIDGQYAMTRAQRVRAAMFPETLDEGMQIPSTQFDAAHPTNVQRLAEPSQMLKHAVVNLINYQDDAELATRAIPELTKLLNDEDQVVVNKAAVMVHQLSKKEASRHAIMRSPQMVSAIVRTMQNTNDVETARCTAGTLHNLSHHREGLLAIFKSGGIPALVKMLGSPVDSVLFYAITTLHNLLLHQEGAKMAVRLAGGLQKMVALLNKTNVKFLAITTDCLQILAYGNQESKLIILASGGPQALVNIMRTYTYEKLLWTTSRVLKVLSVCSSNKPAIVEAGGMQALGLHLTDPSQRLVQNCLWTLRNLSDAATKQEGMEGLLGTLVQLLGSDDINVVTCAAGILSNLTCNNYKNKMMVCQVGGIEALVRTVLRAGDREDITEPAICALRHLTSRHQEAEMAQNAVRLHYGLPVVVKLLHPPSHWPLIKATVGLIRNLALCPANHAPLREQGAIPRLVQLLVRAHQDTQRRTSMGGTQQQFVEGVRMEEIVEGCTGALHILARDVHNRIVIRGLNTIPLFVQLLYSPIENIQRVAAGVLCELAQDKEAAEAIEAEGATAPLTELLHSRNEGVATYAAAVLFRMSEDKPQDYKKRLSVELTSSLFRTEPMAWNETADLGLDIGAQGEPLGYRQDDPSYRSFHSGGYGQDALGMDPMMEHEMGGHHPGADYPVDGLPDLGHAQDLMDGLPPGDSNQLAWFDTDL
Experimental: as §1

B-cat-Halo [3] = biological target: T3, B-cat-Halo (UniProt P35222 1-781); experiment: cell-based or functional assay
T3 sequence (looked up): T1 sequence

[4] = biological target: T4, beta-catenin in DLD1 TCF/LEF luciferase reporter cells (UniProt P35222 2-781); experiment: cell-based or functional assay
T4 sequence (looked up): T2 sequence

[5] = biological target: T5, beta-catenin in DLD1 TCF/LEF luciferase reporter cells (UniProt P35222 1-781); experiment: cell-based or functional assay
T5 sequence (looked up): T1 sequence

B-cat-Halo [6] = biological target: T6, B-cat-Halo (UniProt P35222 1-781); experiment: cell-based or functional assay; remark: listed apart in the source
T6 sequence (looked up): T1 sequence

B-cat-Halo [7] = biological target: T7, B-cat-Halo (Homo sapiens (Human), UniProt P35222 1-781); experiment: cell-based or functional assay
T7 sequence: T1 sequence

[8] = biological target: T8, beta-catenin in DLD1 TCF/LEF luciferase reporter cells (Homo sapiens (Human), UniProt P35222 1-781); experiment: cell-based or functional assay
T8 sequence: T1 sequence

[9] = biological target: T9, Bcat-Halo (beta-catenin HaloTag construct transfected into HEK293 cells) (UniProt P35222 1-781); experiment: cell-based or functional assay
T9 sequence (looked up): T1 sequence

[10] = biological target: T10, beta-catenin in DLD1 TCF/LEF luciferase reporter cells (UniProt P35222 1-781); experiment: cell-based or functional assay; remark: listed apart in the source
T10 sequence (looked up): T1 sequence

B1: I-724 (peptide)
peptide: Ac-[αAllylPro]DI[B5]DEAA[Phe(3-OMe)]Q[S8]F[Bta]Q-NH2
modifications: staple 1-4, 4-11
notes: also called Ac-PL3-Asp-Ile-B5-Asp-Glu-Ala-Ala-3OMeF-Gln-S8-Phe-BztA-Gln-NH2
IC50 [1]: 114 nM

B2: I-67: Ac-Ala-Asp-Ile-RdN-Asp-Glu-Ala-Ala-Phe-Gln-S7-Phe-Trp-His-NH2 (stapled peptide) (peptide)
peptide: Ac-ADI[RdN″]DEAAFQ[S7]FWH-NH2
modifications: staple 4-11
notes: This is the later eluting staple isomer composition
IC50 [2]: 1230 nM

Ac-[αAllylPro]D[tBuAla][B5(3)]D[(Pfbn)GA]AAFL[PyrS2″][3Thi][Bta]Q-NH2 (staple 1-4, 4-11) [I-1632]
NanoBRET Abs IC50 (B-cat-Halo [3]): 6500 nM
DLD1 4% Abs IC50 [4]: 2600 nM

Ac-[αAllylPro]D[tBuAla][B5(4)]D[TfeGA]AAFL[PyrS2″][3Thi][Bta]A-NH2 (staple 1-4, 4-11) [I-1710]
DLD1 4% Abs IC50 [5]: 1900 nM
NanoBRET Abs IC50 (B-cat-Halo [6]): 3900 nM

Ac-[αAllylPro]D[tBuAla][B5(3)]D[Phe(3-COOH)]AAFL[PyrS2(4)][3Thi][Bta]NAA[dA]-NH2 (staple 1-4, 4-11; reading uncertain) [I-2047]
NanoBRET Abs IC50 (B-cat-Halo [7]): 2600 nM
DLD1 4% Abs IC50 [8]: 1300 nM

Ac-[αAllylPro]D[tBuAla][B5(4)]D[TfeGA]AAFL[PyrS2][3Thi][Bta]Q-NH2 (staple 1-4, 4-11) [I-1461]
NanoBRET Abs IC50 [9]: 3700 nM
DLD1 4% Abs IC50 [10]: 1700 nM

B3: I-710 (peptide)
peptide: Ms-[αAllylPro]DI[B5(5)]DEAAFQ[S8]F[Bta]Q-NH2
modifications: staple 1-4, 4-11
notes: separate staple-isomer composition (earlier eluting HPLC peak); also called MeSO2-PL3-Asp-Ile-B5-Asp-Glu-Ala-Ala-Phe-Gln-S8-Phe-BztA-Gln-NH2
IC50 [1]: 73 nM

Ac-ADI[RdN]DEAAFQ[S7]FWH-NH2 (staple 4-11) [I-66: Ac-Ala-Asp-Ile-RdN-Asp-Glu-Ala-Ala-Phe-Gln-S7-Phe-Trp-His-NH2 (stapled peptide)]
IC50 [2]: 1090 nM

B4: I-1466 (peptide)
peptide: Ac-[αAllylPro]D[tBuAla][B5(4)]D[Phe(3-COOH)]AAFL[PyrS2(4)][2F3MeF][Bta]Q-NH2
modifications: staple 1-4, 4-11; not fully specified; printed as Ac-PL3-Asp-Npg-B5-Asp-3COOHF-Ala-Ala-Phe-Leu-PyrS2-2F3MeF-BztA-Gln-NH2; reading uncertain
DLD1 4% Abs IC50 [10]: 700 nM

Ac-[αAllylPro]D[tBuAla][B5(4)]D[TfeGA″]AAFL[PyrS2″][3Thi][Bta]T-NH2 (staple 1-4, 4-11; reading uncertain) [I-1706]
DLD1 4% Abs IC50 [5]: 2700 nM
NanoBRET Abs IC50 (B-cat-Halo [6]): 4800 nM
